Laboratory results reported in article PMC12412097, “Structure and Nitrite Reductase Activity of the Di-iron Protein ScdA in Staphylococcus aureus” (Journal of the American Chemical Society, 2025).

Legend:
[1] = biological target: C-terminal domain-only (CTD, residues 64-224) variant of ScdA (S. aureus) (UniProt P72360); experiment: SEC; Superdex 75 Increase 10/300 GL, 20 mM Tris, 150 mM NaCl, pH 7.6; no reducing agent (WT also with MV radicals); oligomer peak at 9.2 mL, dimer peak at 10.9 mL
O=NO = experiment: purified protein; details: pH 7.6, methyl viologen cation radical as electron donor, 1 μM enzyme

For “C-terminal domain-only (CTD, residues 64-224) variant of ScdA (from UniProt P72360 64-224) (domain or fragment)”, the stoichiometry N [1] was 2.
In the case of “ScdA (Staphylococcus aureus subsp. aureus NCTC 8325)”, the Km (O=NO; partly oligomeric) is reported as 681 µM and the kcat (O=NO; partly oligomeric) is reported as 32.3 min^–1.
Work on “ScdA (Staphylococcus aureus subsp. aureus NCTC 8325; C191A/C30A/C31A)” yielded a Km (O=NO; predominantly dimeric) of 822 µM and a kcat (O=NO; predominantly dimeric) of 94.3 min^–1.
